Measurements from patent publication US20250387450A1 (AIKIUM, published 2025).
Where a chain is given by its changes, count along the chain named.

Key:
[1] = biological target: T1, CYSLTR2 N-terminal disordered region peptide, MERKFMSLQPSISVSEMEPNGTFSNNNSRNCTIENFKREFFP (biotin label); assay: ELISA: scaffold coated on plate, biotinylated peptide titrated, streptavidin-HRP fluorescence
T1 construct: also called CysLT2; CysLT2r
T1 peptide: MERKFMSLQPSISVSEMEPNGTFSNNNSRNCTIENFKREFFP
Experimental: (§1) Binder proteins were coated on the surface of a high binding capacity 96 well plate by incubating 100 μL of protein at 5 μg/mL in a coating solution (10 mM Tris pH 8.8, 50 mM NaCl), overnight at 4 C. The next morning, the coating solution was aspirated out and wells were washed once with 300 μL ELISA wash buffer (1×PBS, 0.05% Tween-20) and solution was aspirated out. The wells were blocked with 200 μL of a blocking buffer (1×PBS, 0.05% Tween-20, 3% BSA) at room temperature for 1 hour. After one hour, the blocking solution was aspirated out and 100 μL of biotinylated polypeptide in a binding buffer (1×PBS, 0.05% Tween-20, 0.5% BSA) at various concentrations was added to the appropriate well and incubated for 20 minutes. Peptide solution was aspirated out after 20 minutes and wells were washed 5 times with 300 μL of ELISA wash buffer. To detect the biotinylated peptide, 100 μL of streptavidin-HRP (50 ng/ml) was added to each well and incubated for 1 hour. The wells were subsequently washed 5 times with 300 μL of ELISA wash buffer. 100 μL of QuantaBlu Fluorogenic Peroxidase substrate solution was added to each well, incubated for 30 minutes and reaction stopped by adding 100 μL of stop solution. Fluorescent signal from each well was measured using a Biotek Cytation5 plate reader by exciting the fluorophore at […] and measuring emission at 420 nm. Fluorescent signals were plotted as a function of polypeptide concentration.

[2] = biological target: T2, KAAG1 disordered region peptide, PGAAAAHLPRWPPPQLAASRREA (biotin label); assay: as above
T2 construct: also called KAAG1 Peptide
T2 peptide: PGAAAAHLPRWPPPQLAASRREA
Experimental: as §1

[3] = biological target: T3, CD74 disordered region peptide (CLIP), PPKPVSKMRMATPLLMQALPMGALP (biotin label); assay: modified sandwich ELISA, fluorescence grade by the table's key
T3 construct: also called CD74 Peptide
T3 peptide: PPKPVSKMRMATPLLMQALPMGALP
Experimental: as §1

[4] = biological target: T2, KAAG1 disordered region peptide, …; assay: as above
Experimental: as §1

[5] = biological target: T4, GMERKFMSLQPSISVSEMEPNGTFSNNNSRNCTIENFKREFFP (biotinylated, position not given); assay: ELISA: scaffold coated on plate, biotinylated peptide titrated, streptavidin-HRP fluorescence
T4 construct: also called CYSLTR2 (longer peptide of the disordered region)
T4 peptide: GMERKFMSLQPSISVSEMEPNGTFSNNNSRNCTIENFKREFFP
Experimental: as §1

[6] = biological target: T5, TNFRSF13B disordered region peptide, LPPELRRQRSGEVENNSDNSGRYQ (biotin label); assay: as above
T5 construct: also called TNFRSF13B Peptide
T5 peptide: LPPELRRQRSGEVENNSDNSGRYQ
Experimental: as §1

[7] = biological target: T6, CD40LG short linear epitope peptide, NKEETKKENSFEMQKGDQNPQIAAH (biotin label); assay: as above
T6 construct: also called CD40LG Peptide
T6 peptide: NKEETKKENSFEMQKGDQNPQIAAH
Experimental: as §1

[8] = biological target: T7, CYSLTR2 short linear epitope peptide, SISVSEMEPNGTFSNNNSRNC (N-terminal biotin); assay: as above
T7 peptide: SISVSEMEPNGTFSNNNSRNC
Experimental: as §1

[9] = biological target: T8, KCNA6 short linear epitope peptide, QQQEQQPASGGGGQNGQQAMS (biotin label); assay: as above
T8 construct: also called KCNA6 Peptide
T8 peptide: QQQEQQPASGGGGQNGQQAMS
Experimental: as §1

[10] = biological target: T1, CYSLTR2 N-terminal disordered region …; assay: modified sandwich ELISA (FIGS. 30A, 30B)
Experimental: as §1, with “Fluorescent signals were plotted as a function of polypeptide concentration.” left out

[11] = biological target: T7, CYSLTR2 short linear epitope peptide, …; assay: ELISA: scaffold coated on plate, N-terminally biotinylated peptide titrated, streptavidin-HRP fluorescence
Experimental: as §1

MERKFMSLQPSISVSEMEPNG = biological target: T9, MERKFMSLQPSISVSEMEPNG (N-terminal biotin); assay: as above
T9 construct: also called CYSLTR2 N-terminal 21-mer peptide
T9 peptide: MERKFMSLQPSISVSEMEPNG
Experimental: as §1

[12] = biological target: T3, CD74 disordered region peptide (CLIP), …; assay: ELISA: scaffold coated on plate, biotinylated peptide titrated, streptavidin-HRP fluorescence
Experimental: as §1

[13] = biological target: T1, CYSLTR2 N-terminal disordered region …; assay: modified sandwich ELISA, fluorescence grade by the table's key
Experimental: as §1

[14] = biological target: T5, TNFRSF13B disordered region peptide, …; assay: modified sandwich ELISA, grade by the table's key
Experimental: as §1

[15] = biological target: T1, CYSLTR2 N-terminal disordered region …; assay: ELISA, fluorescence at 10000 nM peptide divided by the no-scaffold control
Experimental: as §1

[16] = biological target: T10, 25 amino acid epitope of CLIP (CD74); assay: BLI (Octet RED), biotinylated peptide on streptavidin sensor
T10 construct: also called CLIP Peptide

[17] = biological target: T11, CRACM disordered region polypeptide; assay: modified sandwich ELISA, fluorescence grade by the table's key
T11 construct: domain: disordered region
Experimental: as §1

[18] = biological target: T12, Urotensin-2 receptor N-terminal peptide, MALTPESPSSFPGLAATGSSVPEPPGGPNATLNSSWASPTEPSSLEDLVATGTI (biotin label); assay: modified sandwich ELISA, grade by the table's key
T12 construct: also called Urotensin IIR; GPCR2 (Urotensin II)
T12 peptide: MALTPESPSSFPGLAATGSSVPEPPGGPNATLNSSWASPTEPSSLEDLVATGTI
Experimental: as §1

[19] = biological target: T1, CYSLTR2 N-terminal disordered region …; assay: modified sandwich ELISA, grade by the table's key
Experimental: as §1

[20] = biological target: T2, KAAG1 disordered region peptide, …; assay: modified sandwich ELISA, grade by the table's key
Experimental: as §1

B1: engineered scaffold protein S164 (designed binder)
chain: GIKEEHSIRQNEKYNNPDQSGNFEFHLDGQPIFRVDMQKKRTKWQLEEFGRFASFEAQGALANIAVFKINLEIMTKRSNQSEAGSHSWQLNFTCEFHEGTESVRLSERSYYNQENFVSFNSDVGEYRATTELGRPMAEYVNSQKDTLEQRRAAVDTYCRHNYGVGEYFTVQRR
Does B1 bind [1]?
Result: no binding (tested: 10000 nM)

Does B1 bind [2]?
Result: no binding (tested: 10000 nM)

And the fluorescent signal [3]?
The fluorescent signal was > 400000 fluorescentsignal.

B2: engineered scaffold protein S171 (designed binder)
chain: GDTRPRFLWQLKWECHFYNGTERVRLNERCNYNQEESVRFDSDVGEYRAVTELGRPDAEFSNSQKDNLEQRRAAVDTLCRHNYGVGESFTVQRRSGGGIKEEHVINQAEYYLNPDQSGEFKFDFDGDEIFHVDMAKKETVWRLEEFGRFAIIEAYGALANIAVDKANLEIMTKQSNYT
Does B2 bind [1]?
Result: no binding (tested: 10000 nM)

Does B2 bind [2]?
Result: no binding (tested: 10000 nM)

And the fluorescent signal [3]?
Its fluorescent signal is > 400000 fluorescentsignal.

B3: engineered scaffold protein S055 (designed binder)
chain: GSHSMRYNYTSVSRPGRGEPRFLSEGHVDDTQFVRFDSDAASPREEPRAPWIEQEGPEYWDRNTQIYKAQAQTDRESLRNLRGYYNQSEAGSHTLQSIYGCDVGPDGRLLRGHDQYYYDGKDYISLNEDLRSWTAADTAAQITQRKWEAAREAEQRRAYLEGECVEWLRRYLENGKDKLERADGGSHHHHHHLE
What does the source list for B3?
fluorescent signal [4]: 50000 to 100000 fluorescentsignal; fluorescent signal [3]: > 400000 fluorescentsignal

B4: engineered scaffold protein S056 (designed binder)
chain: B3 chain with D30G, T31Q, Q32P, S92L, T94S, Q96N, G100V, Q115H, K121E, D122L
With B4 as the binder, how does the fluorescent signal [4] read?
The fluorescent signal was 50000 to 100000 fluorescentsignal.

And the fluorescent signal [3]?
The fluorescent signal was > 400000 fluorescentsignal.

B5: engineered scaffold protein S194 (designed binder)
chain: MGIKEEHVINQAEYYLNPDQSGEFKFDFDGDEIFHVDMAKKETVWRLEEFGRFASFEAQGALAHIAVDKANLEIMTKRSNYTPMGGGSKARMATGALAQAGGSGGSGDTRPRFLWQLKYECHFFNGTERVRLNERCIYNQEESVRFDSDVGEYRAVTELGRPDAEQWNSQKDHLEQRRAAVDTKCRHNYGVGESFTVQGGSHHHHHH
Does B5 bind [5]?
Result: binds

Does B5 bind [6]?
Result: no binding (tested: 10000 nM)

Does B5 bind [7]?
Result: no binding (tested: 10000 nM)

Does B5 bind [2]?
Result: no binding (tested: 10000 nM)

Does B5 bind [8]?
Result: binds

Does B5 bind [9]?
Result: no binding (tested: 10000 nM)

B6: engineered scaffold protein S090 (designed binder)
chain: IKEEHSIRQNEMYLNPDQSGLFEFHLDGQPIFRVDMQKKRTKWQLEEFGRFASFEAQGALANIAVDKANLEIMTKRSNQSEAGSHSWQLIFVCEFHEGTESVRLSERCYYNQELSVSFNSDVGEYRAVTELGRPDAEYWNSQKDLLEQRRAAVDTYCRHNYGVGESFTVQRRGGSHHHHHHLE
notes: also called scaffold v1.2; v1.2
B6 was tested. Which “fold higher affinity compared to a non-specific protein binder” value [10] did it give?
Its value is > 65 fold.

Does B6 bind [11]?
Result: binds

Does B6 bind (MERKFMSLQPSISVSEMEPNG)?
Result: no binding (tested: 10000 nM)

What about the “EC50 (read off the curve)” value [12] of the same binder?
Its value is ~500 nM.

What about the fluorescent signal [13] of the same binder?
The fluorescent signal was 250000 to 400000 fluorescentsignal.

What about the fluorescent signal [4] of the same binder?
Its fluorescent signal is 250000 to 400000 fluorescentsignal.

What about the fluorescent signal [3] of the same binder?
The fluorescent signal was > 400000 fluorescentsignal.

Does B6 bind [14]?
Result: no binding (tested: <5000 (fluorescence, key))

And the “Fold Change (Relative Binding)” value [15]?
The value was 37.2 x.

What about the “Relative Binding (signal over the no-scaffold control)” value [15] of the same binder?
Its value is 37.2 x.

B7: engineered scaffold protein S005 (designed binder)
chain: MIKEEHVIIQAEFYLNPDQSGEFMFDFDGDEIFHVDMAKKETVWRLEEFGRFASFEAQGALANIAVDKANLEIMTKRSNYTPMGDTRPRFLWQLKFECHFFNGTERVRLLERCIYNQEESVRFDSDVGEYRAVTELGRPDAEYWNSQKDLLEQRRAAVDTYCRHNYGVGESFTVQGGSHHHHHHLE
notes: Derived from MHC II; also called scaffold v1.1; v1.1
Does B7 bind [8]?
Result: binds

What about the “EC50 (read off the curve)” value [12] of the same binder?
The value was ~300 nM.

What about the Kd [16] of the same binder?
Its Kd is 840 nM.

What about the fluorescent signal [13] of the same binder?
The fluorescent signal was 100000 to 250000 fluorescentsignal.

What about the fluorescent signal [17] of the same binder?
Its fluorescent signal is 100000 to 250000 fluorescentsignal.

And the fluorescent signal [3]?
The fluorescent signal was > 400000 fluorescentsignal.

Does B7 bind [14]?
Result: no binding (tested: <5000 (fluorescence, key))

Does B7 bind [18]?
Result: no binding (tested: <5000 (fluorescence, key))

What about the “Fold Change (Relative Binding)” value [15] of the same binder?
Its value is 18.5 x.

And the “Relative Binding (signal over the no-scaffold control)” value [15]?
The value was 18.5 x.

B8: engineered scaffold protein S177 (designed binder)
chain: B7 chain with I9N, F13Y, M24K, N63H, F96Y, L110N, Y143Q, L150H, Y161K
Does B8 bind [11]?
Result: binds

Does B8 bind (MERKFMSLQPSISVSEMEPNG)?
Result: no binding (tested: 10000 nM)

Does B8 bind [5]?
Result: binds

Does B8 bind [6]?
Result: no binding (tested: 10000 nM)

Does B8 bind [7]?
Result: no binding (tested: 10000 nM)

Does B8 bind [2]?
Result: no binding (tested: 10000 nM)

Does B8 bind [9]?
Result: no binding (tested: 10000 nM)

What about the fluorescent signal [13] of the same binder?
The fluorescent signal was 100000 to 250000 fluorescentsignal.

B9: engineered scaffold protein S084 (designed binder)
chain: IKEEHVIQQSEYYTNPDQSGEFQFDFDGDEIFHVDMAKKETVWRLEEFGRFASFEAQGALANIAVDKANLEIMTKRSNYTGDTRPRFNWQLKFECHFFNGTERVRLLERCNYNQEESVRFDSDVGEYRAVTELGRPDAEYWNSQKDLLEQRRAAVDTYCRHNYGVGESFTVQRRGGSHHHHHHLE
Which results are given for B9?
fluorescent signal [3]: > 400000 fluorescentsignal; binding result [14]: no binding (tested: <5000 (fluorescence, key)); binding result [19]: no binding (tested: <5000 (fluorescence, key)); binding result [20]: no binding (tested: <5000 (fluorescence, key)); binding result [18]: no binding (tested: <5000 (fluorescence, key))
